We go through 3 substances from patent publication US20040029280A1.

For assay [1], the target named is recombinant Ad5 knob (knob domain of the adenovirus type 5 fiber protein) (adenovirus type 5 (Ad5)) (UniProt P11818). Put plainly: Biacore analysis. For orientation: In SPR one partner is held on a chip, and binding of the other changes the refractive index at the surface.
Assay [2] deals with adenoviral fiber knob on AdCMVLuc (Ad5 vector) virions (adenovirus type 5 (Ad5)) (UniProt P11818). Put plainly: cell-based or functional assay.
The target of assay [3] is FGF receptors. Put plainly: cell-based or functional assay.
The target in assay [4] is Recombinant trimeric Ad5 knob protein with an N-terminal 6-His tag (adenovirus type 5 (Ad5)) (UniProt P11818). In words: ELISA on His-tagged Ad5 knob on Ni-NTA strips, detection with anti-FGF2 antibody and anti-rabbit HRP; wells without knob gave 0.35+0.04.
Assay [5] has the same target. In words: ELISA on His-tagged Ad5 knob on Ni-NTA strips, detection with anti-FGF2 antibody and anti-rabbit HRP; control.

A word on the Kd: it is a measure of binding affinity in units of concentration.

With “Fab fragment of 1D6.14 anti-Ad5 knob neutralizing antibody”, the Kd in assay [1] amounted to 2.1 nM. In assay [2], this substance gave a block of AdCMV-Luc transduction (luciferase), CVU-1 cells of 20%; a block of AdCMV-Luc transduction (luciferase), KS-SLK cells above 50%; a block of AdCMV-Luc transduction (luciferase), KSY-1 cells above 50%; a block of AdCMV-Luc transduction (luciferase), RW376 cells above 50%. In assay [2], this substance registered an inhibition of AdCMVLuc infection (luciferase), 3T3 cells of 97%; an inhibition of AdCMVLuc infection (luciferase), D54 MG cells of 98.3%; an inhibition of AdCMVLuc infection (luciferase), PANC-1 cells of 98.8%; an inhibition of AdCMVLuc infection (luciferase), SKOV3.1p1 cells of 69.3%. In addition, the inhibition of AdCMVLuc transfection (luciferase), HUVECs in assay [2] was 87%.
For “Fab-FGF2 conjugate (1D6.14 Fab chemically conjugated to FGF2 C96S mutein) (from UniProt P09038 1-155)”, in assay [3], the inhibition by anti-FGF2 antibody of infection by the Ad-Fab-FGF2 complex (luciferase), 3T3 cells turned out to be 96.1%; the inhibition by anti-FGF2 antibody of infection by the Ad-Fab-FGF2 complex (luciferase), D54 MG cells is 94%; the inhibition by anti-FGF2 antibody of infection by the Ad-Fab-FGF2 complex (luciferase), PANC-1 cells stood at 96.3%; the inhibition by anti-FGF2 antibody of infection by the Ad-Fab-FGF2 complex (luciferase), SKOV3.1p1 cells came to 90.1%. Further, the absorbance in assay [4] was 3.7 absorbance.
Regarding “FGF2 mutein (C96S) (from UniProt P09038 1-155) (ligand)”, in assay [5], the absorbance came out at 1.55 absorbance.
